Source: patent US20040234530A1 (WISCONSIN ALUMNI RESEARCH FOUNDATION, published 2004)

Molecular target: T1, StcE′ E435D-His (as StcE′-His with glutamic to aspartic acid at residue 435; from pTB5, strain WAM2804) (E. coli O157:H7 EDL933 (plasmid pO157), UniProt O82882 36-898)
T1 sequence: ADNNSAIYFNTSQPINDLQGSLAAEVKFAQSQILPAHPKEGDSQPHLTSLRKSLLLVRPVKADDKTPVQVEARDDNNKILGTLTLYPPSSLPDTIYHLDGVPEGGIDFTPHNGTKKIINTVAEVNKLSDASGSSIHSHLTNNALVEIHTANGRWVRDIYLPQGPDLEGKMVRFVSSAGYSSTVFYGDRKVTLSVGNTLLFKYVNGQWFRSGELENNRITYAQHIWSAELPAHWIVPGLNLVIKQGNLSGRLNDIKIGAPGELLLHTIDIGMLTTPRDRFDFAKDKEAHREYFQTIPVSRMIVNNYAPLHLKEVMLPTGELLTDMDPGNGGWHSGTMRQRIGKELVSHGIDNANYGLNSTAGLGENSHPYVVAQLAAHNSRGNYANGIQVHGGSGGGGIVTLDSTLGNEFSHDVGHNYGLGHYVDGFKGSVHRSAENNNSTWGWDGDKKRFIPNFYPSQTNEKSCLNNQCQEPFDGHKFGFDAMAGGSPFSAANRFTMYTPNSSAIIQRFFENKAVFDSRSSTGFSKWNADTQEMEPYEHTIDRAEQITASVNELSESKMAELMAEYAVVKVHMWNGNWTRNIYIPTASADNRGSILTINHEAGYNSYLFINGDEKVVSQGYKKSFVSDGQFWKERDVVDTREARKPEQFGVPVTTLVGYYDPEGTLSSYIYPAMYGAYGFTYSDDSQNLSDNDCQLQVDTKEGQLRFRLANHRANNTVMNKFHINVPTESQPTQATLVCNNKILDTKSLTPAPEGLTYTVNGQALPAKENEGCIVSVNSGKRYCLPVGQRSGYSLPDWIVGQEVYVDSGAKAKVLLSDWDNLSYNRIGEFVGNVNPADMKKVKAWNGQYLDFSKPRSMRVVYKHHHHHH

B1: C1-esterase inhibitor (human plasma protease C1 inhibitor), purified or in human serum (other, UniProt P05155 23-500, looked up)
chain: NPNATSSSSQDPESLQDRGEGKVATTVISKMLFVEPILEVSSLPTTNSTTNSATKITANTTDEPTTQPTTEPTTQPTIQPTQPTTQLPTDSPTQPTTGSFCPGPVTLCSDLESHSTEAVLGDALVDFSLKLYHAFSAMKKVETNMAFSPFSIASLLTQVLLGAGENTKTNLESILSYPKDFTCVHQALKGFTTKGVTSVSQIFHSPDLAIRDTFVNASRTLYSSSPRVLSNNSDANLELINTWVAKNTNNKISRLLDSLPSDTRLVLLNAIYLSAKWKTTFDPKKTRMEPFHFKNSVIKVPMMNSKKYPVAHFIDQTLKAKVGQLQLSHNLSLVILVPQNLKHRLEDMEQALSPSVFKAIMEKLEMSKFQPTLLTLPRIKVTTSQDMLSIMEKLEFFDFSYDLNLCGLTEDPDLQVSAMQHQTVLELTETGVEAAAASAISVARTLLVFEVQQPFLFVLWDQQHKFPVFMGRVYDPRA
modifications: heavily glycosylated N-terminal domain
Which “fold level of C1-INH on erythrocyte surfaces against that in the presence of StcE′-His” value does the source give for B1 here?
Its value is 22 fold.
